Positions count from the first letter of the chain named.

One may read the Kd as a measure of binding affinity in units of concentration. High values mean lower affinity, low ones higher affinity. One may read the t½ as the time needed for the level to fall by half in the phase considered.

B1: mAb11004 (antibody, V domains shown)
VH: QVQLVESGGGVVQPGRSLRLSCVASGFTFSIYGMDWVRQAPGKGLEWVAVISYDGSNKYYADSVKGRFTISRDNSKNTLYLQMNSLRPEDTAVYYCAKDREAAADAFDIWGQGTMVTVSS
VL: DIQMTQSPSSVSASVGDRVTITCRASQGISSWLAWYQQKPGKAPKLLIYAASSLHSGVPSRFSGSGSGTDFTLTISSLQPEDFATYYCQQANSFRLTFGGGTKVEIK
B2: mAb11006 (antibody, V domains shown)
VH: EVQLVESGGGLVQPGGSLRLSCAASGFIVSRNYMSWVRQAPGKGLEWVSVIYSGGSTFYADSVKGRFTISRHNSKNTLYLQMNSLKAEDTAVYYCARELRGYFDYWGQGTLVTVSS
VL: DIQLTQSPSFLSASVGDRVTITCWASQGISSYLAWYQQKPGKAPKLLIYAASTLQSGVPSRFSGSGSGTEFTLTISSLQPEDFATYYCQLLNSYPYTFGQGTKLEIK
B3: mAb11008 (antibody, V domains shown)
VH: EVQLVESGGGLVQPGGSLRLSCAASGFTVSSNYMTWVRQAPGKGLEWVSVIYSGGSTFYADSVKGRFTISRHNSENTLYLQMNSLRAEDTAVYYCARDLAAAGTDYWGQGALVTVSS
VL: B2 VL with E81D, L90H, P95L
B4: mAb10998 (antibody, V domains shown)
VH: EVQLVESGGGLVHPGGSLRLSCAASGLTVSSNYMSWVRQAPGKGLEWVSVIYSGGSTYYADSVKGRFTISRHNSKNTLFLQMNSLRAEDTAVYYCARDRPITGTTLDVWGQGTTVTVSS
VL: DIQMTQSPSSLFASVGDRVTITCRASQSISSYLNWYQQKPGKAPKLLIYAASSLQSGVPSRFSGSGSGTDFTLTISSLQPEDFAFYYCQQTYSTPPITFGQGTRLEIK

The first assay concerns the target SARS-CoV-2 spike protein receptor binding domain (amino acids Arg319 to Phe541) expressed with the F (SARS-CoV-2).
Assay: not given
The note with it: remark: other sources report otherwise.
Molecule B1 showed an SARS-CoV-2 RBD-hFc Binding to His presented ACE2 (Abs 450 nm) of 0.211 Abs 450 nm.

The target of the next assay is SARS-CoV-2 RBD extracellular domain expressed with a C-terminal myc-myc-hexahistidine tag (SARS-COV-2 RBD-MMH) (SARS-CoV-2).
Assay: not given
The note with it: remark: other sources report otherwise.
B2 gave a dissociation constant (Kd) of 4.1 nM and a t½ of 31.5 min.

B3 showed a Kd of 59.4 nM and a t½ of 2.9 min.

Turning to B4, the Kd came to 117 nM and the t½ stood at 0.5 min.

Regarding B1, the Kd is 16.6 nM and the t½ was found to be 3.7 min.

The target in another assay is Bt-SARS-CoV-2 Spike Protein (RBD)(R319-F541).hFc (SARS-CoV-2).
Assay: not given
The note with it: remark: other sources report otherwise.
B2 gave a Binding signal (MFI) of 3810 MFI.

As for B3, the Binding signal (MFI) stood at 4110 MFI.

B4 registered a Binding signal (MFI) of 467 MFI.

Molecule B1 returned a Binding signal (MFI) of 7620 MFI.

Another assay concerns the target Bt-SARS-CoV-2 Spike Protein (RBD)(R319-F541).mFc (SARS-CoV-2).
Assay: not given
The conditions noted are these: remark: other sources report otherwise.
As to B2, the Binding signal (MFI) is 1400 MFI.

Molecule B3 showed a Binding signal (MFI) of 3050 MFI.

B4 gave a Binding signal (MFI) of 2230 MFI.

In turn, B1 showed a Binding signal (MFI) of 4300 MFI.

A further assay deals with Human SARS Coronavirus Spike S1 Subunit Protein (His Tag) (Sino 40150-V08B1) (Human SARS Coronavirus), P59594. The experiment in a line: Luminex bead assay, antigen on microspheres, antibody supernatant. The note with it: remark: other sources report otherwise.
B2 yielded a Binding signal (MFI) of 339 MFI.

With B3, the Binding signal (MFI) is 31 MFI.

In turn, B4 showed a Binding signal (MFI) of 16 MFI.

Molecule B1 showed a Binding signal (MFI) of 33 MFI.

The target in a further assay is Human SARS Coronavirus Spike Protein (Receptor Binding Domain, His Tag) (Sino 40150-V08B2) (Human SARS Coronavirus), P59594. The assay is described as above. The conditions noted are these: remark: other sources report otherwise.
In the case of B2, the Binding signal (MFI) was found to be 667 MFI.

For B3, the Binding signal (MFI) came out at 174 MFI.

The molecule B4 registered a Binding signal (MFI) of 37 MFI.

On to B1, for which the Binding signal (MFI) was 740 MFI.

In another assay the target is SARS-CoV-2 Spike Protein (RBD)(R319-F541).hFc (SARS-CoV-2). The assay is described as above. The conditions noted are these: remark: other sources report otherwise.
Molecule B2 registered a Binding signal (MFI) of 3980 MFI.

As for B3, the Binding signal (MFI) was 2570 MFI.

Turning to B4, the Binding signal (MFI) came to 1740 MFI.

In turn, B1 returned a Binding signal (MFI) of 4880 MFI.

In the next assay the target is SARS-CoV-2 Spike Protein (RBD)(R319-F541).mFc (SARS-CoV-2). The description is as above. The conditions noted are these: remark: other sources report otherwise.
For B2, the Binding signal (MFI) was determined as 2870 MFI.

The molecule B3 gave a Binding signal (MFI) of 4260 MFI.

Molecule B4 returned a Binding signal (MFI) of 2230 MFI.

Regarding B1, the Binding signal (MFI) was 4580 MFI.

The target in another assay is MERS-CoV (NCoV/Novel coronavirus) Spike Protein S1 Protein (aa 1-725, His Tag) (Sino 40069-V08B1) (MERS-CoV), K9N5Q8. The description is as above. The conditions noted are these: remark: other sources report otherwise.
For the molecule B2, the Binding signal (MFI) stood at 18 MFI.

For B3, the Binding signal (MFI) was determined as 18 MFI.

B4 came in with a Binding signal (MFI) of 19 MFI.

In turn, B1 displayed a Binding signal (MFI) of 17 MFI.

The next assay addresses Human SARS Coronavirus Spike Protein (Receptor Binding Domain) rabbit Fc (Sino 40150-V31B2) (Human SARS Coronavirus), P59594. Described as above. The note with it: remark: other sources report otherwise.
Turning to B2, the Binding signal (MFI) came to 615 MFI.

In turn, B3 registered a Binding signal (MFI) of 120 MFI.

In turn, B4 returned a Binding signal (MFI) of 29 MFI.

B1 gave a Binding signal (MFI) of 5520 MFI.

For another assay, the target named is MERS-CoV (NCoV/Novel coronavirus) Spike Protein fragment (RBD, aa 367-606, His Tag) (Sino 40071-V08B1) (MERS-CoV), K9N5Q8. The description is as above. The note with it: remark: other sources report otherwise.
B2 displayed a Binding signal (MFI) of 15 MFI.

Regarding B3, the Binding signal (MFI) came out at 20 MFI.

B4 came in with a Binding signal (MFI) of 24 MFI.

For B1, the Binding signal (MFI) was 26 MFI.

A further assay has as its target SARS-CoV-2 RBD extracellular domain expressed with a C-terminal human IgG1 (SARS-COV-2 RBD-hFc) (SARS-CoV-2).
Assay: not given
The note with it: remark: other sources report otherwise.
With B2, the Kd was less than 0.0532 nM and the t½ is more than 1160 min.

The molecule B3 gave a Kd of 0.715 nM and a t½ of 100 min.

Molecule B4 had a Kd of 1.58 nM and a t½ of 22.2 min.

As to B1, the Kd came to 0.191 nM and the t½ came to 174 min.

The values are drawn from patent US20220356230A1.
